Results from patent publication US20040115738A1 (INNATE PHARMA, published 2004).

Key:
FcεRIγ = target: T1, FcεRIγ (UniProt P30273 19-86); assay: co-immunoprecipitation (data not shown)
T1 construct: Endogenous protein in NK cell lysates; also called FcεFRIγ (as misprinted)
T1 sequence (looked up): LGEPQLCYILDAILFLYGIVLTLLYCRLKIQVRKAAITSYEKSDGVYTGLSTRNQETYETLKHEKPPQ

DAP12 = target: T2, DAP12 (UniProt O43914 22-113); assay: co-immunoprecipitation (data not shown)
T2 construct: Endogenous protein in NK cell lysates
T2 sequence (O43914 22-113 limits assumed): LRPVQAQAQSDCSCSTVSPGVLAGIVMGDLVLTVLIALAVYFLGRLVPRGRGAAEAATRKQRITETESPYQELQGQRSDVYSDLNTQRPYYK

binding result (FcεRIγ): no binding | binding result (DAP12): no binding
B1: NKp80 (receptor)
chain: MQDEERYMTLNVQSKKRSSAQTSCLTFKDYSVTLHWYKILLGISGTVNGILTLTLISLILLVSCGVLLKCQKGSCSNATQYEDTGDLKVNNGTRRNISNKDLCASRSADQTVLCQSEWLKYQGKCYWFSNEMKSWSDSYVYCLERKSHLLIIHDQLEMAFIQKNLRQLNYVWIGLNFTSLKMTWTWVDGSPIDSKIFFIKGPAKENSCAAIKESKIFSETCSSVFKWICQY
notes: 231 aa type II transmembrane protein; On the NK cell surface it is a dimer (80 kD non-reduced, about 40 kD reduced); Tested on human NK cells, in lysates of 125I-labeled NK cells, and on 293T cells transfected with VR1012-ML; also called MA152-reactive molecule; MA152 mAb-reactive molecule
